Substrate in data set [1]: CC(C)(COP(=O)(O)OP(=O)(O)OC[C@H]1O[C@@H](n2cnc3c(N)ncnc32)[C@H](O)[C@@H]1OP(=O)(O)O)[C@@H](O)C(=O)NCCC(=O)NCCSC(=O)/C=C/c1ccc(O)cc1
Put plainly: HPLC product assay, forward HCT reaction. To be noted: 500 µM shikimic acid, 100 mM sodium phosphate pH 7.5, 500 µM DTT, kcat apparent. In kind it is biochemical, Arabidopsis thaliana. The source says:
HPLC product assay, forward HCT reaction on AtHCT1

Substrate in data set [2]: O=C(/C=C/c1ccc(O)c(O)c1)O[C@@H]1CC(C(=O)O)=C[C@@H](O)[C@H]1O
Put plainly: HPLC product assay, reverse HCT reaction. In kind it is biochemical, Arabidopsis thaliana. To be noted: 500 µM CoA, 100 mM sodium phosphate pH 7.5, 500 µM DTT, kcat apparent, substrate tested 20 to 400 µM. The source says: HPLC product assay, reverse HCT reaction on AtHCT1

The source of these data is paper PMC7913460, “Targeting hydroxycinnamoyl CoA: shikimate hydroxycinnamoyl transferase for lignin modification in Brachypodium distachyon” (Biotechnology for Biofuels, 2021).

B1: AtHCT1 (Arabidopsis thaliana) (protein)
chain: MKINIRDSTMVRPATETPITNLWNSNVDLVIPRFHTPSVYFYRPTGASNFFDPQVMKEALSKALVPFYPMAGRLKRDDDGRIEIDCNGAGVLFVVADTPSVIDDFGDFAPTLNLRQLIPEVDHSAGIHSFPLLVLQVTFFKCGGASLGVGMQHHAADGFSGLHFINTWSDMARGLDLTIPPFIDRTLLRARDPPQPAFHHVEYQPAPSMKIPLDPSKSGPENTTVSIFKLTRDQLVALKAKSKEDGNTVSYSSYEMLAGHVWRSVGKARGLPNDQETKLYIATDGRSRLRPQLPPGYFGNVIFTATPLAVAGDLLSKPTWYAAGQIHDFLVRMDDNYLRSALDYLEMQPDLSALVRGAHTYKCPNLGITSWVRLPIYDADFGWGRPIFMGPGGIPYEGLSFVLPSPTNDGSLSVAIALQSEHMKLFEKFLFEI
With B1, in data set [1], the Km turned out to be 18.5 µM, the turnover number (kcat) was 17.5 s⁻¹ and the kcat/Km stood at 950000 M⁻¹ s⁻¹. For the same protein, in data set [2], the Michaelis constant (Km) turned out to be 225.0 µM, the turnover number (kcat) is 17 s⁻¹ and the specificity constant (kcat/Km) amounted to 76000 M⁻¹ s⁻¹.

Usually Km stands for the substrate concentration at which the rate is half of its maximum. Usually kcat stands for the number of substrate molecules converted per active site and unit of time at saturation. In general, kcat/Km refers to the turnover number divided by the Michaelis constant.
